Laboratory results: the nanobody polyreactivity screen of Harvey et al. (2022)

assay: yeast display, Sf9 membrane polyspecificity reagent, FACS + sequencing; frameworks hold sequencing errors
Method in brief: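 Polyreactivity labels are assigned by the sorting gate from which each nanobody was recovered. The gates were low and high (top ~1%), set on anti-HA fluorescence for expression and streptavidin fluorescence for reagent binding. Before sorting, galactose-induced (36–48 hours) yeast display cells were stained for 1 hour at 4 °C with 10% biotinylated, detergent-solubilized Sf9 membrane reagent.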

Sequence	polyreactivity (PSR sort gate)
QVQLVESGGGLVQAGGSLRLSCAASGRTFSKNVMGWYRQAPGKEREFVARISDSGVGTYYADSVKGRFTISRDNAKNTVYLQMNSLKPEDTAVYYCAAAVWYRGWYRYDYWGQGTQVTVSS	low polyreactivity
QVQLVESGGGLVQAGGSLRLSCAASGRIFWANAMGWYRQAPGKERELVAAISYSGVSTYYADSVKGRFTISRDNAKNTVYLQMNSLKPADTAVYYCAADRYRKYYYWGQGTQVTVSS	high polyreactivity
QVQLVESGGGLVQAGGSLRLSCAATVSTIKTYATMGLYRQAPWTERELVAAITSGSSTNYADSVKGRFTISRDNAKNTVYLQMNSMKPEDTAVYYCAADDYYNWYLGEPGDYWGQGTQVTVSS	low polyreactivity
QVQHVESGGGLVQAGGSLRLSCADSGSTFWFNAMGWYRQAHGKERELVAAIDWSDGSTYYADSVKGRFTISRDNAKNTVYLQMNSLKPEDTAVYYCAADHRYSARRSVPTLYDYWGQGTHVTVSS	low polyreactivity
QVQLVESGGGLVQAGGSLRLSCAASGLTFPRYAMGGYRQAPGKERELVAAISYRGGRTYYADSVKGRFTISRDNAKNTVYLQMNSLKPEDTAVYYCNADSIYSARGWLYGYWGQGTQVTVSS	low polyreactivity
QVQLVESGGGLVQAGGSLRLSCAASGGNFGYYAMGWYRQAPGKEREFVAAITLSGGRTYYADSVKGRFTISRDNAKNTVYLQMNSLKPEDTAVYYCAAKGTRRGKERNYWGQGTQVTVSS	high polyreactivity
QVPLVESGGGLVQAGGILRISCAATGSSFRFKAMGWYRQAPGQERELVAAISRRGSSTYYADSVKGRCTISRDNAKNRVYLQMNSLKAEDTAVYYCAASGGYRPHRYQIGDYDNWGQGTQVTLSS	high polyreactivity
QVQLVESGGGLVQAGGSLRLSCAASGRTFHSNAMGWYRQAPGNDRELVASSRRGSRTYYADSVKGRFTISRDNAKNTVSLQLTSLKPEDTAVYYCAAAQVGYYVGSVTYGYWGQATQVTVSS	high polyreactivity
QVQLVESGGGLVQAGGSLRLSCAASGRIFTNNAMGWYREAPGKERELVAAISKRGGSTYYADSVKGRFTISRDNAKNTVYLQMNSLKPEDTAVYYCNAREYIHWRGALGLFGSWGQGTQVTVSS	high polyreactivity
QVQLVESGGGLVQAGGSLRLSCAASGIIFSYNVMGWYRQAPGTERELVAGISRSGGSTYYADSVKGRFTISRDNAKNTVYLQMNSLKPEDTAVYYCNRVSYGPYYSYWSDFGYWGQGTQVTVSS	high polyreactivity
QVQLVQSGGGLVQAGGSHRLSCAASGFIFPVYAMGWYRQPPGKERELFASMTTGGSTNYADSVKGRFTITRDNAKNSVYLQMNSLKPEDTAVYDCNQDTPASLANQYNYGGQGTQVTVSS	low polyreactivity
QVQLVESGGGLVQAGGSLRLSCAASGRTFASNALGWYRQAPGKERELVADISSSGGTTYYADSVKGRFTISRDNAKNTVYLQMNSLKPEDTAVYYCAAVSSQDDPVKAWDYDYWGQGTQVTVSS	low polyreactivity
QVQLVESGGGLVQAGGSLRLICAASGSTIYSYAMGWYRQAPGKEREMVAANDWSGTSTYYADSVKGRFTISRDNAKNTVYLQMNSLKPVDTAVYYCNARKRRSYQGGYYYSLRNEYWGQGTQVTVSS	high polyreactivity
QVQLVESGGGLVQAGGSLRLSCAASGFIFHLNAMGWYRQAPGKERELVAAIRSSGGSTYYADSVKGRFTISRDIAKNTVYFQMISMKREDTAVYYCAARGSSGLTRRGYYWGQGTQVNVSS	high polyreactivity
QVQLVETGGGLVQAGGSLRLSCAASGSTFEYNAMGWYRQAPGKERALVAGISSGGSTYYADSVKGRFTISRDNAKNTVYLQMNSLKPEDTAVYYCATSEASFATWDRYTELDYWGQGTQVTVSS	low polyreactivity
QVQLVESGGGLVQAGGSLRLTCAASGSTFWSYGMGWYRPAPGKERELVAAITRGGSTYYADSVKGRFTISRDNAKNTVYLQMNSLIPEDTAVYYCAAGISVRWSPSYYYWGQGTQVTVSS	high polyreactivity
QVQLVESVGVLVQAGGSLPLSCAASGFTFQQYAMGWYRQAPGKERELVAAISWSGGSTNYADSVKGRFTISRDNAKNTVYLQMNSMKPEDTAVYYCAAYLRYYRKEVGYSSMNYWGQGTQVTVSS	high polyreactivity
QVQLVESAGGLVQAGGSLRLSCAASGSIFDAYAMGWYRQAPGKERELVAAIIARGGSTYYADSVKGRFTISRDNAKTTVYLQMISLKPEDTAVSYCNRLSRVRRYIYDYWGQGTQVTVSS	high polyreactivity
QVQLVESGGGLVQAGGSLRLSCAASGFTFESYTMGWYRQAPGKESELVAAINSGTSTYYADSVKGRFTISRDNAKNTVYLQMNSLKPEDTAVYYCNARRYRRYRKYDYWGQGTQVTVSS	high polyreactivity
QVQLVESGGGLVQEGGSLRLSCAASGFTFNNYAMGWYRQAPGKERELVAAISSVGRTYYAYSVKGRFTISRDNAKNTVYLQMISLKPEDTAVYYCNRRWYTHWGQGTQVTVSS	high polyreactivity
QVQLVESGGGLVQAGGSLRLSCAASGRTFGTNAMGRYRKAPGKERELVAAITWRGGSTSYADSEKGRFTISRDNAKNSVYFQMNSLKPEDPAVYYCAVRLRYPGNTFYYLGQGTQVTVSS	high polyreactivity
QVQLVESGGGLVQAGGSLRLSCASSGYIITRKAMGWYRQAPGKERELVATISSRGGRTYYADSVKGRFTISRDNAKNTVYLQMNSLKPEDTAVYYCAATPWYRTRTYDYWGQGTQVTVSS	high polyreactivity

Sequence	polyreactivity (PSR sort gate)
QVQLVESGGRLVQAGGILRLSCAASGLTFADNAMGWYRQAPGKERELVATISYSGGSTYYADSVKGRFTISRDNAKNTVYLQMNSLKPEDTAVYYCATVWETKAYSRIQWYYYWGQGTQVTVSS	low polyreactivity
QVQLVESGGGLVQAGGSLRLSCAASGRIFLDYVMGWYRQAPGKERELVAAISWSGDRTDYADSVKGRFTISRDNAKNTVYLQMNSLKPEDTAVYYCASTWYFAYSDDYKFDYWGQGTQVTVSS	low polyreactivity
QVQLVESGGGLVQAGGSLRLSCAASGRIFVQYVMGWYRPAPGKERELVAAITGSDSTTYYADSVKGRFTISRDNAKNTVYLQMNSLKPEDTAVYYCNKDLWLQDDYWGQGTQVTVSS	low polyreactivity
QVQLVESGGGLVQAGGSLRLSCAASGRIFWNYAMGWYRQAPGKERELVAGISSSDGSTYYADSVKGRFTISRDNAKNTVYFQMNSLKPEDTAVYYCAVDKGGRYHVENYYWGQGTQVTVSS	low polyreactivity
QVQLVESGGGLVQAGVSLRLSCAASGSIFDFYAMGWYRQAPGKERELVATITASGGSTYYADSVKGRFTISRDNAKNTVYLQMNSLKPEDTAVYYCNADSVYWGQGTQVTVSS	low polyreactivity
QVHIVETGGGLFQAGGSLRLSSASSGRIFPVYAMGWYRQAPGKERELVAAISRRGGSSYYEDSVKGRFTISRDNAKNTVYLHMNCLKTEDTEVNYFAATAYYYWWWYGGDMDYWGQGTQVSVSS	high polyreactivity
QVQLVESGGGLVQAGGSLSLSCAASGSISLVYAMGWYRQAPGKERELVAAISASGGRTYYADSVKGRFTISRDNAKNTVYLQMNSLKPEDTAVYYFSKDVKKIEFDYWGQGTQVTVSS	high polyreactivity
QVQLVESGGGLVQAGGSLRLSCAASGRIFWYYDMGWYRQAPGKERELVAAISQRGGSTYYADSVKGRFTISRDNAKNTVYLQMKSLKPEDTAVYYCAKRNPYWATREYWGLGTQVTVSS	high polyreactivity
QVQLVESGGGLVQAGGSLRLSCAASGRTFVPYVMGWYRQAPGKERELVATINWSGGSTYYADSVKGRFTISRDNAKNTVYLQMNSLKPEDTAVYYCAADYYWTYSYYYERFDYWGLGTQVTVSS	low polyreactivity
QVQLVESGGGLVQAGGSLRLSCAASGSIFYRYVMGWYRQAPGKERELVAVITGSGGNTYYADSVKGRFTISRDNAKNTVYLQMNSLKPEDTAVYYCAARYYTSQYGRHSRYPSEYWGQGTQVTVSS	high polyreactivity
QVQLVESGGGLVQAGGRLRISCAASGRTFGRYTMGWYRQAPGKERELVASISNTARTNYADSVKGRFTISRDNAKNTVYLQMNSLKPEDTAVYYCAAERAILSSDKQSLWRFDYWGQGTQVTVSS	low polyreactivity
QVQLVESGGGLVQAGGSLRFSCAASGLYYYAMGWYRQAPGKERALVAVITYSGGSTYYADSVKGRFTISRDNGKNSVYLQMNSLKPEDTAVYNCAAEDYYVALPGLYDYWGQGTQVTVSS	low polyreactivity
QVQLVESGGGLVQAGGSLRLSCAASGRTFPYYTMGWYREAPGKERELVAAIDGSGDNTYYADSVKGRFTISRDNAKNTLYLHMNSLKPEHTAVYYCTADTGLGTRDFEKRDYWGQGTQVTVSS	low polyreactivity
QVQLVESGGGLVQAGGSLRLSCAASGSTFVYYAMGWYRQAPGKERELVAAISWSSDSTYYADSEKGRFTISRDNAKNTVYLQMNSLKPEDTAVYYCARSDGRQSYWTDFSTDYYFWGQGTQVTVSS	low polyreactivity
QVQLVESGGGLVQAGGSLRLSCAASGRTFNRYAMGWYRQAPGKERELVAAINWSGGSTYYADSVKARFTISRDIAKTTVYLPMNSLKPEDTAVYYCAADVWGWGLRPYDYWGQGTQVTVSS	low polyreactivity
QVQLVESGGGLVQAGGSLRLSCAASGRIFKFNAMGWYRPAPGKERELVAAITTGGGSTYYADSVKGRFTISRDNAKNTVYLQMNSLKPEDSAVYYCATDRRHVYSSRRYYYWVQGTQVTVSS	high polyreactivity
QVQLVESGGGLVQAGGSLRLSCAASGYTFSYYAMGWYRQAPGKERELVARITYSGGSTYYADSVKGRFTISRDNAKNTVYLQMNSLKPEDTAVYFCAARLRYPYWYYNWGQGTQVTVSS	high polyreactivity
QLQLVESGGGLVQAGGSLRLSCAASGRTFFRYVMGWYRQAPGKERELVAAISTRGGSTYYADSVKGRFTISRDNAKNTVYLQMNSLKPEDTAVYYCAARFKVRDYSYNYWGQGTQVTVSS	high polyreactivity
QDQLVESGVGLVQAGGSLRLSCASSGRIFDPYAMGWYRQAPGKERELVARITWRGGRTYYADSVKVRFTISLDNAKNTVYLQMNSLKPEDTAVFYCNADFYYRYYCAYDYWGQGTQVTVSS	high polyreactivity
QVHLVESGGGLVQAGGSLRLSCAASVRIFQIYAMGWYRQAPGKERELVATISSGTRTYYADSVKGRFTISRDNAKNTVYLQMISLKPEDTAVYYCAKTYATRHAYWAGTRYEDDYWGQGTQVTVSS	high polyreactivity
QVQLVESGGGLVQAGGSLRLSCAASGSTFEYYVMGWYRQAPGKERELVAAISGSGGGTYYADSVKGRFTISRDNAKNTVYLQMNSLKPEDTAVYYCAAVATQEKYDYWGQGTQVTVSS	low polyreactivity
